From the Human Domainome abundance scans (Beltran et al. 2025)
± gives the uncertainty stated by the source.

Assay: abundance fitness (aPCA) (normalised: wild type 0, dead -1); higher = more abundant; growth selection in yeast, the domain comes from the species named
Settings: Homo sapiens

Scaffold attachment factor B2 T49C, Q14151
abundance fitness: -0.266 ± 0.12

Scaffold attachment factor B2 T49D, Q14151
abundance fitness: -0.472 ± 0.13

Scaffold attachment factor B2 T49E, Q14151
abundance fitness: -0.26 ± 0.094

Scaffold attachment factor B2 T49F, Q14151
abundance fitness: -0.452 ± 0.1

Scaffold attachment factor B2 T49G, Q14151
abundance fitness: -0.509 ± 0.075

Scaffold attachment factor B2 T49H, Q14151
abundance fitness: -0.647 ± 0.18

Scaffold attachment factor B2 T49I, Q14151
abundance fitness: -0.401 ± 0.2

Scaffold attachment factor B2 T49K, Q14151
abundance fitness: -0.788 ± 0.16

Scaffold attachment factor B2 T49L, Q14151
abundance fitness: -0.155 ± 0.089

Scaffold attachment factor B2 T49M, Q14151
abundance fitness: -0.606 ± 0.12

Scaffold attachment factor B2 T49N, Q14151
abundance fitness: -0.807 ± 0.43

Scaffold attachment factor B2 T49P, Q14151
abundance fitness: -0.349 ± 0.084

Scaffold attachment factor B2 T49Q, Q14151
abundance fitness: -0.286 ± 0.11

Scaffold attachment factor B2 T49R, Q14151
abundance fitness: -0.766 ± 0.077

Scaffold attachment factor B2 T49S, Q14151
abundance fitness: -0.159 ± 0.087

Scaffold attachment factor B2 T49V, Q14151
abundance fitness: -0.201 ± 0.07

Scaffold attachment factor B2 T49W, Q14151
abundance fitness: -0.365 ± 0.1

Scaffold attachment factor B2 T49Y, Q14151
abundance fitness: -0.512 ± 0.18

Scaffold attachment factor B2 V35A, Q14151
abundance fitness: -0.2 ± 0.074

Scaffold attachment factor B2 V35C, Q14151
abundance fitness: -0.565 ± 0.12

Scaffold attachment factor B2 V35D, Q14151
abundance fitness: -0.087 ± 0.11

Scaffold attachment factor B2 V35E, Q14151
abundance fitness: 0.129 ± 0.083

Scaffold attachment factor B2 V35F, Q14151
abundance fitness: -0.448 ± 0.099

Scaffold attachment factor B2 V35G, Q14151
abundance fitness: -0.351 ± 0.074

Scaffold attachment factor B2 V35H, Q14151
abundance fitness: -0.57 ± 0.12

Scaffold attachment factor B2 V35L, Q14151
abundance fitness: -0.353 ± 0.078

Scaffold attachment factor B2 V35M, Q14151
abundance fitness: -0.236 ± 0.12

Scaffold attachment factor B2 V35Q, Q14151
abundance fitness: -0.431 ± 0.1

Scaffold attachment factor B2 V35R, Q14151
abundance fitness: -0.438 ± 0.067

Scaffold attachment factor B2 V35S, Q14151
abundance fitness: -0.184 ± 0.089

Scaffold attachment factor B2 V35T, Q14151
abundance fitness: -0.075 ± 0.084

Scaffold attachment factor B2 V35W, Q14151
abundance fitness: -0.684 ± 0.083

Scaffold attachment factor B2 V55A, Q14151
abundance fitness: -0.052 ± 0.095

Scaffold attachment factor B2 V55C, Q14151
abundance fitness: -0.294 ± 0.12

Scaffold attachment factor B2 V55D, Q14151
abundance fitness: -0.007 ± 0.1

Scaffold attachment factor B2 V55E, Q14151
abundance fitness: 0.086 ± 0.097

Scaffold attachment factor B2 V55F, Q14151
abundance fitness: -0.748 ± 0.29

Scaffold attachment factor B2 V55G, Q14151
abundance fitness: -0.438 ± 0.076

Scaffold attachment factor B2 V55H, Q14151
abundance fitness: -0.583 ± 0.15

Scaffold attachment factor B2 V55I, Q14151
abundance fitness: -0.668 ± 0.27

Scaffold attachment factor B2 V55K, Q14151
abundance fitness: -0.267 ± 0.094

Scaffold attachment factor B2 V55L, Q14151
abundance fitness: -0.167 ± 0.14

Scaffold attachment factor B2 V55M, Q14151
abundance fitness: -0.02 ± 0.23

Scaffold attachment factor B2 V55P, Q14151
abundance fitness: -0.643 ± 0.13

Scaffold attachment factor B2 V55Q, Q14151
abundance fitness: -0.173 ± 0.1

Scaffold attachment factor B2 V55R, Q14151
abundance fitness: -0.326 ± 0.075

Scaffold attachment factor B2 V55S, Q14151
abundance fitness: -0.496 ± 0.11

Scaffold attachment factor B2 V55W, Q14151
abundance fitness: -0.811 ± 0.1

Scaffold attachment factor B2 V55Y, Q14151
abundance fitness: -0.605 ± 0.18

Scaffold attachment factor B2 V64A, Q14151
abundance fitness: -0.227 ± 0.096

Scaffold attachment factor B2 V64C, Q14151
abundance fitness: -0.312 ± 0.14

Scaffold attachment factor B2 V64D, Q14151
abundance fitness: -0.232 ± 0.18

Scaffold attachment factor B2 V64E, Q14151
abundance fitness: -0.109 ± 0.098

Scaffold attachment factor B2 V64F, Q14151
abundance fitness: -0.326 ± 0.12

Scaffold attachment factor B2 V64G, Q14151
abundance fitness: -0.294 ± 0.091

Scaffold attachment factor B2 V64H, Q14151
abundance fitness: -0.173 ± 0.1

Scaffold attachment factor B2 V64I, Q14151
abundance fitness: -0.271 ± 0.14

Scaffold attachment factor B2 V64K, Q14151
abundance fitness: -0.035 ± 0.14

Scaffold attachment factor B2 V64L, Q14151
abundance fitness: 0.006 ± 0.098

Scaffold attachment factor B2 V64M, Q14151
abundance fitness: -0.013 ± 0.13

Scaffold attachment factor B2 V64N, Q14151
abundance fitness: -0.418 ± 0.21

Scaffold attachment factor B2 V64Q, Q14151
abundance fitness: -0.141 ± 0.16

Scaffold attachment factor B2 V64R, Q14151
abundance fitness: -0.14 ± 0.09

Scaffold attachment factor B2 V64S, Q14151
abundance fitness: -0.242 ± 0.084

Scaffold attachment factor B2 V64T, Q14151
abundance fitness: -0.123 ± 0.11

Scaffold attachment factor B2 V64W, Q14151
abundance fitness: -0.025 ± 0.086

Scaffold attachment factor B2 V64Y, Q14151
abundance fitness: -0.274 ± 0.31

Tyrosine-protein kinase Lck D77E, P06239
abundance fitness: -0.02 ± 0.13

Tyrosine-protein kinase Lck E83K, P06239
abundance fitness: -0.049 ± 0.12

Tyrosine-protein kinase Lck E92N, P06239
abundance fitness: -0.047 ± 0.14

Tyrosine-protein kinase Lck E96D, P06239
abundance fitness: 0.069 ± 0.16

Tyrosine-protein kinase Lck E108T, P06239
abundance fitness: 0.034 ± 0.12

Tyrosine-protein kinase Lck F110Y, P06239
abundance fitness: 0.001 ± 0.19

Tyrosine-protein kinase Lck F113S, P06239
abundance fitness: 0.094 ± 0.071

Tyrosine-protein kinase Lck F115Y, P06239
abundance fitness: 0.148 ± 0.12

Tyrosine-protein kinase Lck G78D, P06239
abundance fitness: -0.088 ± 0.099

Tyrosine-protein kinase Lck G81S, P06239
abundance fitness: -0.096 ± 0.078

Tyrosine-protein kinase Lck H70Y, P06239
abundance fitness: -0.029 ± 0.12

Tyrosine-protein kinase Lck H76T, P06239
abundance fitness: -0.17 ± 0.1

Tyrosine-protein kinase Lck I67A, P06239
abundance fitness: -0.465 ± 0.1

Tyrosine-protein kinase Lck I67C, P06239
abundance fitness: -0.193 ± 0.12

Tyrosine-protein kinase Lck I67D, P06239
abundance fitness: -0.506 ± 0.21

Tyrosine-protein kinase Lck I67E, P06239
abundance fitness: -0.146 ± 0.11

Tyrosine-protein kinase Lck I67F, P06239
abundance fitness: -0.102 ± 0.16

Tyrosine-protein kinase Lck I67G, P06239
abundance fitness: -0.552 ± 0.079

Tyrosine-protein kinase Lck I67H, P06239
abundance fitness: -0.353 ± 0.13

Tyrosine-protein kinase Lck I67K, P06239
abundance fitness: -0.442 ± 0.14

Tyrosine-protein kinase Lck I67N, P06239
abundance fitness: -0.206 ± 0.15

Tyrosine-protein kinase Lck I67P, P06239
abundance fitness: -0.607 ± 0.15

Tyrosine-protein kinase Lck I67Q, P06239
abundance fitness: -0.394 ± 0.14

Tyrosine-protein kinase Lck I67R, P06239
abundance fitness: -0.263 ± 0.097

Tyrosine-protein kinase Lck I67S, P06239
abundance fitness: -0.378 ± 0.08

Tyrosine-protein kinase Lck I67T, P06239
abundance fitness: 0.151 ± 0.16

Tyrosine-protein kinase Lck I67W, P06239
abundance fitness: -0.078 ± 0.11

Tyrosine-protein kinase Lck I67Y, P06239
abundance fitness: 0.097 ± 0.25

Tyrosine-protein kinase Lck K99L, P06239
abundance fitness: -0.125 ± 0.074

Tyrosine-protein kinase Lck P74A, P06239
abundance fitness: -0.414 ± 0.1

Tyrosine-protein kinase Lck Q87R, P06239
abundance fitness: -0.01 ± 0.077

Tyrosine-protein kinase Lck Q101H, P06239
abundance fitness: -0.328 ± 0.16

Tyrosine-protein kinase Lck R89Q, P06239
abundance fitness: 0.125 ± 0.29

Tyrosine-protein kinase Lck S71D, P06239
abundance fitness: -0.095 ± 0.14

Tyrosine-protein kinase Lck S75R, P06239
abundance fitness: -0.064 ± 0.081
